Assay results as given in patent publication US20130101557A1.

Molecular target: vascular endothelial growth factor (VEGF) (human) (UniProt P15692)
Experiment: cell-based or functional assay

UniProt P15692, sequence (P15692 other isoform, or with tags, fused parts or gaps limits assumed): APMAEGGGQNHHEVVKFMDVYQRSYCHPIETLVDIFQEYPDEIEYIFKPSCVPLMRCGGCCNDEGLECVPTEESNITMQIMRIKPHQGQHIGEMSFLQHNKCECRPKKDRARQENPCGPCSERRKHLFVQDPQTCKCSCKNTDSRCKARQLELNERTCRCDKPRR

KH903 (Fc fusion)
viability of HUVECs 72 h after infection with 30 MOI dE1-k35/KH903 (MTT assay), decrease against non-treated group: 53%
